The values that follow are results of earlier work, collected in paper PMC8808565 (iScience, 2022).

For the data set, the system named is ACE2.

B1: human defensin 5 (protein, UniProt Q01523 20-94, looked up)
Defensin alpha 5: ESLQERADEATTQKQSGEDNQDLAISFAGNGLSALRTSGSQARATCYCRTGRCATRESLSGVCEISGRLYRLCCR
modifications: Defensin-5
B1: the “target (in words)” value is listed as “target ACE2”.
